Measurements published in patent US20230110188A1 (ARGENX IIP, published 2023).
Numbering of substitutions follows the chain as printed.

T1: Mouse MuSK as it stands on mouse muscle (neuromuscular junctions, C2C12 myotubes) (mouse, UniProt Q61006 22-868)
T1 sequence (looked up): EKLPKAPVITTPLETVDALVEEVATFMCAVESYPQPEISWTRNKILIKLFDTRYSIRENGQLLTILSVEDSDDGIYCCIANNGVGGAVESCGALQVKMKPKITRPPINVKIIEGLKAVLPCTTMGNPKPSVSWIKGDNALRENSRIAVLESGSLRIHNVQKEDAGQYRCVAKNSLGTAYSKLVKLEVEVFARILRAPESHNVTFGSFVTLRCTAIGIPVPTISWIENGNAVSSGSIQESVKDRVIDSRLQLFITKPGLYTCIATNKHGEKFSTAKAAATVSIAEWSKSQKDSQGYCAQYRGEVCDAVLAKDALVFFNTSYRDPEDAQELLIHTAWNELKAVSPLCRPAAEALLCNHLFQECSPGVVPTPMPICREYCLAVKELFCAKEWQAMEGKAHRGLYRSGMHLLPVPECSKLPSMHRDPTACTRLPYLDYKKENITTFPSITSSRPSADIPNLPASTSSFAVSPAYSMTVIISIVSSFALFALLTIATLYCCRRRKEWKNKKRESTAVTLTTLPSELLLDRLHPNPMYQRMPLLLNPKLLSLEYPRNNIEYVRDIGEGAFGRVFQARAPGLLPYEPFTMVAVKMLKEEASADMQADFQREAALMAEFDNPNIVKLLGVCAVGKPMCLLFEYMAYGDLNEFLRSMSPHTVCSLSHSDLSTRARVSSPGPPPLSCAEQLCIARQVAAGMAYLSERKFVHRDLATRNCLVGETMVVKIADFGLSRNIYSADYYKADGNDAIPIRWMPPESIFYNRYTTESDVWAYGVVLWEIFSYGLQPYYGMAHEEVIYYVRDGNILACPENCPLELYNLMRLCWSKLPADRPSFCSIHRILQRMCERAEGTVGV

T2: Human MuSK (R&D Systems, cat. 10189-MK, histidine tag) (human, UniProt O15146 24-495)
T2 construct: Bought protein; also called human monomeric MuSK-6xhis; not shown: histidine tag (6xhis)
T2 sequence: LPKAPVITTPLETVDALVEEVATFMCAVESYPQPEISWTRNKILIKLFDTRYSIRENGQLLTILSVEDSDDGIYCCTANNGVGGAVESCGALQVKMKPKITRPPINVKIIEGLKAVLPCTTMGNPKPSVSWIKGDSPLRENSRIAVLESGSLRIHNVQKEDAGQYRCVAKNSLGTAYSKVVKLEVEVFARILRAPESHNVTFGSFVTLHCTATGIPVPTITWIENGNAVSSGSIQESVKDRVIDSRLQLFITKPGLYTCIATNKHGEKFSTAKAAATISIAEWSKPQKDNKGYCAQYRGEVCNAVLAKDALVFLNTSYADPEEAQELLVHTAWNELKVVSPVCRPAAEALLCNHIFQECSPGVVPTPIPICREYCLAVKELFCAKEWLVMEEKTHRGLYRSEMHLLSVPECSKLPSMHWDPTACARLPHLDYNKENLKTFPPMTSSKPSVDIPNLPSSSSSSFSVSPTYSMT

B1: 3D10a (antibody, human IgG1, kappa, L234A L235A, V domains shown)
VH: EVQLVESGGGLVKPGGSLRLSCAASGFTFSASTMAWVRQAPGKGLEWVSSVSGDSHHIYYADSLKGRFTISRDNAKNSLYLQMNSLRAEDTAVYYCARERLLRLGVGFDSWGQGTLVTVSS
VL: DIQMTQSPSSLSASVGDRVTITCRASQRISGFVNWYQQKPGKAPKLLIYAASTLQSGVPSRFSGSGSGTDFTLTISSLQPEDFATYYCQQSYSPLYTFGQGTKLEIKR
B2: 4D3 (antibody, human IgG1, kappa, L234A L235A, V domains shown)
VH: B1 VH with A31S, S32Y, A35T, V51I, G53S, D54G, S55G, H57Y, A61T, S110F
VL: B1 VL with R28S, F32Y, V33L, P94A
B3: 3D9b (antibody, human IgG1, kappa, L234A L235A, V domains shown)
VH: EVQLVESGGGLVKPGGSLRLSCAASGFTFSTYTMHWVRQAPGKGLEWVSSISSRSAYKYYADSVKGRFTISRDNAKNSLYLQMNSLRAEDTAVYYCARDFFQLGPPRFDSWGQGTLVTVSS
VL: B1 VL with G31S, V33L, A50G, T53N, L95S
B4: 3F6c (antibody, human IgG1, kappa, L234A L235A, V domains shown)
VH: EVQLVESGGGLVKPGGSLRLSCAASGFTFSSYTMDWVRQAPGKGLEWVSSIGSNGDYIYYADSVRGRFTISRDNAKNSLYLQMNSLRAEDTAVYYCARGQLAVAGTHFDYWGQGTLVTVSS
VL: B1 VL with R28K, I29V, S30N, G31K, F32Y, Y96S

biological target: T1, Mouse MuSK as it stands on mouse muscle …; assay: cell-based or functional assay

AChR clusters larger or equal to 3 µm compared to agrin; antibody 0.11 µg/mL | AChR clusters larger or equal to 3 µm compared to agrin; antibody 1.1 µg/mL | AChR clusters larger or equal to 3 µm compared to agrin; antibody 11 µg/mL | AChR clusters larger or equal to 3 µm compared to agrin; antibody 110 µg/mL | Binder
80 % of agrin | 79 % of agrin | 76 % of agrin | 73 % of agrin | B1
63 % of agrin | 80 % of agrin | 80 % of agrin | 75 % of agrin | B2
65 % of agrin | 99 % of agrin | 93 % of agrin | 84 % of agrin | B3
74 % of agrin | 57 % of agrin | 62 % of agrin | 61 % of agrin | B4

biological target: T2, Human MuSK (R&D Systems, cat. 10189-MK, …); assay: SPR (Biacore), MuSK-coated chip presaturated with 500 nM 3D10a (competitor)
Experimental: A chip was coated with ˜5000 RU of human MuSK (Lot nr DHUCO 11908A, batch nr 1089_MK). In a first experiment the saturating concentration of the pre-leads was determined. This is the concentration where the amplitude of a specific pre-lead doesn't increase anymore when additional pre-lead is injected on the immobilized MuSK.

amplitude of prelead after presaturating MuSK (RU) | extra amplitude (%) | normalized extra amplitude (%) | Binder
56 | 1.8 | 0.2 | B1
42 | 1.6 | 0 | B2
169 | 8 | 6.4 | B3
26 | 1 | -0.6 | B4

biological target: T2, Human MuSK (R&D Systems, cat. 10189-MK, …); assay: SPR (Biacore), antibody captured on anti-hFc chip; average of 0.3125-10 nM; dissociation pH 5.5
From the text: (§1) In order to study pH dependent binding of our antibodies to MuSK, the Biacore was used with the same setup as described in the paragraph entitled “Binding affinity for mouse, human and rhesus monkey recombinant MuSK in Biacore”. 6. […] For the other antibodies there is no real difference observed between pH 7.4 and 5.5.

koff [s⁻¹] | Binder
9e-05 | B1
0.00016 | B2
4e-05 | B3
0.0002 | B4

biological target: T2, Human MuSK (R&D Systems, cat. 10189-MK, …); assay: SPR (Biacore), pH 7.4 (summary table, repeats the average of Table 16)
From the text: as §1

koff [s⁻¹] | Binder
0.00014 | B2
0.00012 | B3
8e-05 | B4

biological target: T2, Human MuSK (R&D Systems, cat. 10189-MK, …); assay: SPR (Biacore), antibody captured on anti-hFc chip; 0.625 nM; dissociation pH 7.4
From the text: as §1

koff [s⁻¹] | Binder
0.00013 | B1
0.00016 | B2
0.00014 | B3
4e-05 | B4
